Assay results reported in patent US20240376207A1 (JIANGSU HENGRUI PHARMACEUTICALS, published 2024).
Like-named read-outs stand apart in the source and are kept apart here. Blank lines part the entries; values can stand above or below the binder they belong to.

Assays:
[1] = biological target: T1, human PVRIG expressed on cells (human, UniProt Q6DKI7 41-326); assay: cell-based or functional assay
T1 sequence (looked up): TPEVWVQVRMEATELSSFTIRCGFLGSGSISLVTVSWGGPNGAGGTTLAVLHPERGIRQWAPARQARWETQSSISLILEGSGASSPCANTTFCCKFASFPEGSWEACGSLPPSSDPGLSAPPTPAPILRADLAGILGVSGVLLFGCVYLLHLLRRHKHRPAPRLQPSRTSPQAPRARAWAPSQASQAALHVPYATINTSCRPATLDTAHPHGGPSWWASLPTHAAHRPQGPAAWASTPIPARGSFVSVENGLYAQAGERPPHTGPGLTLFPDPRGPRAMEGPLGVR

[2] = biological target: T2, cynomolgus monkey PVRIG expressed on cells (cynomolgus monkey, UniProt A0A2K5WVV8 1-322); assay: FACS, cells overexpressing target
T2 construct: whole, on cells; also called Monkey PVRIG FACS; cells overexpressing cynomolgus monkey PVRIG
T2 sequence: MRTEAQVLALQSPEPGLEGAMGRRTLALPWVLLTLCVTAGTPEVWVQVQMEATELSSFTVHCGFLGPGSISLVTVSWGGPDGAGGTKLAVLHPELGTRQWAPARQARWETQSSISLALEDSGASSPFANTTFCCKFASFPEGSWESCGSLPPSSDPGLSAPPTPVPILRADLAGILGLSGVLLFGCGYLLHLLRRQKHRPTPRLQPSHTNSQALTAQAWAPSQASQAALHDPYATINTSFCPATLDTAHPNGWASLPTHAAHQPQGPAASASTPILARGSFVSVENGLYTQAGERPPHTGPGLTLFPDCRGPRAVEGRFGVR
Method: The expression plasmid carrying human or cynomolgus monkey PVRIG gene sequence was transfected into HEK293 cells, and the over-expressing stable transfection monoclonal cell strain was obtained by antibiotic screening and infinite dilution. Overexpressing cells were seeded into a 96-well plate at 2×10⁵ cells/per well. The cells were centrifuged at 300 g for 5 min, the supernatant was then removed, 100 μL of the test antibody was added, and the mixture was incubated at 4° C. for 1 h. The mixture was centrifuged, the supernatant was removed, the plate was washed 3 times with 200 μL of wash buffer (PBS+2% FBS), and then 100 μL of an anti-human IgG secondary antibody (Invitrogen, A-11013) labeled with Alexa Fluor 488 diluted at 1:500 was added. The mixture was incubated at 4° C. for 1 h. The plate was centrifuged, and the supernatant was removed. The plate was washed 3 times with 200 μL of wash buffer (PBS+2% FBS). The cells were resuspended in 100 μL of PBS and tested on a flow cytometer (BD FACS Calibur or BD FACS Canto_II).
Binding of the humanized anti-PVRIG/TIGIT bispecific antibodies to human and cynomolgus monkey PVRIG and their blocking of the ligand of human PVRIG were detected according to the methods of Examples 4, 5 and 6.

[3] = biological target: T3, human TIGIT recombinant protein (human, UniProt Q495A1 22-141, limits assumed); assay: competition ELISA; human TIGIT, competitor human PVR
T3 construct: construct not described; also called human TIGT recombinant protein
T3 sequence (looked up): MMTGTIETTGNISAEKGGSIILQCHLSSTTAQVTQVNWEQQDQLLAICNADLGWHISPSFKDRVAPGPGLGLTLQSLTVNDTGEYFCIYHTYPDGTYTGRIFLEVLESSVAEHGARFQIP
Method: The h-PVRIG-mIgG2a Fc protein (at a concentration of 1 μg/mL) was coated on the 96-well microplate at 100 μL per well, and incubated overnight at 4° C. The plate was washed three times with wash buffer at 250 μL per well. For each wash, the plate was shaken for 10 s to ensure adequate cleaning. A blocking solution was added at 300 μL/well, and the plate was incubated at room temperature for 1 h. The plate was washed three times with wash buffer at 250 μL per well. For each wash, the plate was shaken for 10 s to ensure adequate cleaning. 50 μL of diluted test anti-PVRIG antibody and 50 μL of his-tagged ligand PVRL2 were added to each well, and the plate was incubated at 37° C. for 1 h. The plate was washed three times with wash buffer at 250 μL per well. The HRP-labeled anti-his-tagged secondary antibody (Genscrpit) diluted at 1:2000 was added at 100 μL per well. The plate was incubated at 37° C. for 1 h. The plate was washed three times with wash buffer at 250 μL per well. TMB was added at 100 μL/well, and the plate was incubated in the dark for 15 min. 0.16 M sulfuric acid was added at 50 μL/well. OD values at 450 nm were measured using a Thermo MμtLtiSkanFc microplate reader, and the IC₅₀ values of the anti-PVRIG antibodies blocking the binding of PVRIG to PVRL2 were calculated.
Similarly to Examples 4, 5 and 6, the binding of humanized anti-PVRIG/TIGIT bispecific antibodies to human and cynomolgus monkey TIGIT and blocking of binding of human TIGIT to ligand were detected, where PVRIG protein was replaced with TIGIT and PVRL2 was replaced with PVR.

[4] = biological target: T4, human TIGIT antigen (AcroBiosystem, TIT-H52H3) (human, UniProt Q495A1 22-141); assay: SPR (Biacore X100), antibody captured on Protein A chip, 1:1 fit
T4 sequence (looked up): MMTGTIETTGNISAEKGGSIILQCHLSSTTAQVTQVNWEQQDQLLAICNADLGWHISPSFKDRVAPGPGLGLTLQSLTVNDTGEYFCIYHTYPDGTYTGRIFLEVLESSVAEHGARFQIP
From the text: The affinity of the humanized bispecific antibodies for human PVRIG, cynomolgus monkey PVRIG and human TIGIT was detected using Biacore. Humanized bispecific antibodies were each captured on a Protein A biosensor chip (GE lifesciences, 29127557) of a Biacore instrument (Biacore X100, GE), and then human PVRIG antigen (AcroBiosystem, PVG-H52H4), cynomolgus monkey PVRIG antigen (SEQ ID NO: 1), or human TIGIT antigen (AcroBiosystem, TIT-H52H3) at a series of concentration gradients each flowed over the chip surface. The reaction signals were detected in real time using a Biacore instrument (Biacore X100, GE) to obtain association and dissociation curves. The data obtained from the experiment were fitted using the (1:1) Binding model with the BiacoreX100 evaluation software 2.0 GE to obtain affinity values (see Table 31).

[5] = biological target: T1, human PVRIG expressed on cells; assay: cell-based or functional assay; remark: listed apart in the source
[6] = biological target: T1, human PVRIG expressed on cells; assay: cell-based or functional assay; remark: listed apart in the source

- EC50 [2]: 0.07 nM
- IC50 [3]: 1.02 nM
- Kd [4]: 0.0763 nM
- koff [4]: 0.00015 s⁻¹
- kon [4]: 1.97e+06 M⁻¹ s⁻¹
B2: humanized anti-PVRIG/TIGIT bispecific antibody 1708-20H5 (bispecific antibody, human IgG4 S228P, kappa)
heavy: not shown
light: DIQMTQSPSSLSASVGDRVTITCRASENIYSYLAWYQQKPGKSPKLLIYNARTLAEGVPSRFSGSGSGTDFTLTISSLQPEDFATYYCQYHSGSPLPFGGGTKVEIKRTVAAPSVFIFPPSDEQLKSGTASVVCLLNNFYPREAKVQWKVDNALQSGNSQESVTEQDSKDSTYSLSSTLTLSKADYEKHKVYACEVTHQGLSSPVTKSFNRGEC

- EC50 [2]: 3.54 nM
- IC50 [3]: 1.01 nM
- Kd [4]: 0.0512 nM
- koff [4]: 0.000158 s⁻¹
- kon [4]: 3.08e+06 M⁻¹ s⁻¹
B3: humanized anti-PVRIG/TIGIT bispecific antibody 1708-30H2 (bispecific antibody, human IgG4 S228P, kappa)
heavy: not shown
light: DIQMTQSPSSLSASVGDRVTITCRASENIYSYLAWYQQKPGKSPKLLIYNARTLAEGVPSRFSGSGSGTDFTLTISSLQPEDFATYYCQYHSGSPLPFGGGTKVEIKRTVAAPSVFIFPPSDEQLKSGTASVVCLLNNFYPREAKVQWKVDNALQSGNSQESVTEQDSKDSTYSLSSTLTLSKADYEKHKVYACEVTHQGLSSPVTKSFNRGEC

- reporter gene activity, fold of the positive antibody Tab5 [5]: 3.7 to 18.5 fold
B5: anti-PVRIG antibody 151 (antibody, human IgG4 S228P, F234A L235A, V domains shown)
VH: HVQLVESGGGSVQAGGSLRLSCVASASGFTYRPYCMAWFRQAPGKEREAVAGIDIFGGTTYADSVKGRFTASRDNAGFSLFLQMNDLKPEDTAMYYCAAGDSPDGRCPPLGQGLNYWGQGTQVTVSS
notes: no light chain
- NK92 killing of K562, killing activity (%), 4 nM antibody [6]: 20.9%
- NK92 killing of K562, killing activity (%), 20 nM antibody [6]: 22.9%
- NK92 killing of K562, killing activity (%), 100 nM antibody [6]: 24.2%

The remaining lines, values behind:

B1: anti-PVRIG antibody 30 (antibody, human IgG4 S228P, F234A L235A, V domains shown)
VH: HVQLVESGGGSVQAGGSLRLSCEASGYSYSGDCMGWFRRAPGKERDEGVATIDNAGRIKYADSVKGRFTISHGNGKYILYLQMNSLKPEDTDMYYCAAGWTFGGNCSPADWGQGTQVTVSS
notes: no light chain
- NK92 killing of K562, killing activity (%), 4 nM antibody [1]: 10.4%
- NK92 killing of K562, killing activity (%), 20 nM antibody [1]: 11.9%
- NK92 killing of K562, killing activity (%), 100 nM antibody [1]: 13.3%

B4: anti-PVRIG antibody 38 (antibody, human IgG4 S228P, F234A L235A, V domains shown)
VH: QVQLVESGGGSVQAGGSLRLSCAASPSTYGPSDMAWFRQAPGKQREGVATISAAGRLTYYTDSVRGRFTISRDNAKNTMYLQMNSLKPEDTAMYYCAADFAGGSSLFADYKYWGQGTQVTVSS
notes: no light chain
- reporter gene activity, fold of the positive antibody Tab5 [5]: 3.7 to 18.5 fold

B6: positive antibody Tab5 (antibody, human IgG4 S228P, kappa, F234A L235A, V domains shown)
VH: EVQLVESGGGVVKPGGSLRLSCAASGFTFGTSSMNWVRQAPGKGLEWVAVISFDGTEIHYADSVKGRFTISRDNSKSTVFLQMNSLRPDDTALYYCAKGSGNIYFYSGMDVWGQGTTVTVSS
VL: DIQMTQSPSTLSASVGDRVTITCRAGQSISGWLAWFQQKPGKAPNLLIYETSTLESGVPSRFSGSGSGTEYTLTISSLQPDDFATYYCQQYYSYPLTFGQGTKVEIKR
notes: Variable regions of CPA.7.021 (WO2016134333A1) on human IgG4 (S228P/F234A/L235A/K447A) and human kappa constant regions
- NK92 killing of K562, killing activity (%), 4 nM antibody [1]: 5.9%
- NK92 killing of K562, killing activity (%), 20 nM antibody [1]: 7.9%
- NK92 killing of K562, killing activity (%), 100 nM antibody [1]: 10%

B7: anti-PVRIG antibody 39 (antibody, human IgG4 S228P, F234A L235A, V domains shown)
VH: QVQLVESGGGSVQAGGSLRLSCAASRYTSRTDCMGWFRQAPGKEREGVAHIDSDGIPRYVESVKGRFTISQDHAKNTLYLQMNSLKPEDSATYYCVVGFKFGDYCAPNDWGQGTQVTVSS
notes: no light chain
- NK92 killing of K562, killing activity (%), 4 nM antibody [6]: 21.3%
- NK92 killing of K562, killing activity (%), 20 nM antibody [6]: 22.7%
- NK92 killing of K562, killing activity (%), 100 nM antibody [6]: 22.8%
